These results are taken from patent publication US20250332264A1, “GhR-BINDING PEPTIDE AND COMPOSITION COMPRISING SAME” (priority 2021, published 2025).

Starred links: 1 amine or outer side, 2 acyl side, 3 side chain; linkers in the order of their positions; H or OH if unused. Positions of bridges follow the written chain, without caps; N, C: chain ends. Non-standard residues stand in square brackets, D forms with d. Residues, ends and D or L forms follow the SMILES beside them. Groups on a side chain read outwards from the residue. *: point of attachment. X13 = NC(=O)[C@H](CCCCN*)NC(=O)COCCOCCNC(=O)COCCOCCNC(=O)CC[C@H](NC(=O)CC[C@H](NC(=O)CCCCCCCCCCCCC(=O)O)C(=O)O)C(=O)O; X8 = NC(=O)[C@H](CCCCN*)NC(=O)COCCOCCNC(=O)COCCOCCNC(=O)CC[C@H](NC(=O)CC[C@H](NC(=O)CCCCCCCCCCCCCC(=O)O)C(=O)O)C(=O)O; A4pipaa = 4-amino-1-(carboxymethyl)piperidine-4-carboxylic acid, O=C(C1(N[*:1])CCN(CC(=O)[*:3])CC1)[*:2]; X3 = NC(=O)[C@H](CCCCN*)NC(=O)CC[C@H](NC(=O)CC[C@H](NC(=O)CCCCCCCCCCCCCCC(=O)O)C(=O)O)C(=O)O; X10 = NC(=O)[C@H](CCCCN*)NC(=O)CC[C@H](NC(=O)CC[C@H](NC(=O)CCCc1ccc(I)cc1)C(=O)O)C(=O)O; Trp(1-CH2CO) = O=C([C@H](Cc1cn(CC(=O)[*:3])c2ccccc12)N[*:1])[*:2]; Trp(5-OMe) = COc1ccc2[nH]cc(C[C@H](N)C(=O)O)c2c1; Butanoyl(4-(4-I-phenyl)) = O=C(CCCc1ccc(I)cc1)*; Trp(5-OH) = N[C@@H](Cc1c[nH]c2ccc(O)cc12)C(=O)O; Phe(4-COOH) = N[C@@H](Cc1ccc(C(=O)O)cc1)C(=O)O; Piperazinyl(4-CH2COOH) = O=C(O)CN1CCN(*)CC1; C16 diacid = O=C(O)CCCCCCCCCCCCCCC(=O)*; γGlu = O=C(O)[C@H](CCC(=O)[*:2])N[*:1]; Aad = N[C@@H](CCCC(=O)O)C(=O)O; NMeK = CN[C@@H](CCCCN)C(=O)O; Aib = CC(C)(N)C(=O)O; CO = O=C([*:1])[*:2]

As a reminder, the Kd is the free concentration of one partner at which half of the binding sites on the other are occupied at equilibrium, for simple one-to-one binding.

T1: Recombinant human GhR-Fc protein (R&D Systems) (human, UniProt P10912 19-264, limits assumed)
T1 construct: Bought from R&D Systems; Amine-coupled to a CM5 chip in the SPR assay; also called hGhR; recombinant human GhR protein fused to Fc portion of human IgG; not shown: Fc portion of human IgG
T1 sequence (looked up): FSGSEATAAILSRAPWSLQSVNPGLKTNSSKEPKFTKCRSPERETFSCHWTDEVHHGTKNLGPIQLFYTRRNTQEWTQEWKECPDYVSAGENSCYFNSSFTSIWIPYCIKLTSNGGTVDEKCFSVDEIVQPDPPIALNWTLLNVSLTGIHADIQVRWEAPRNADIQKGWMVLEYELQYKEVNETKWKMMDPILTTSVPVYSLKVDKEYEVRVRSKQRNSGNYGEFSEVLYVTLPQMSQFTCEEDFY

B1: GhR_PD_139 (peptide)
peptide: {CH2CO}-Y[NMeK]VVSN[Trp(1-CH2CO)]YK[Trp(5-OH)][Aib]VCG-NH2
modifications: thioether N-13; lactam 2-7
SMILES: CC(C)[C@@H]1NC(=O)[C@H](C(C)C)NC(=O)[C@@H]2CCCCNC(=O)Cn3cc(c4ccccc43)C[C@H](NC(=O)[C@H](CC(N)=O)NC(=O)[C@H](CO)NC1=O)C(=O)N[C@@H](Cc1ccc(O)cc1)C(=O)N[C@@H](CCCCN)C(=O)N[C@@H](Cc1c[nH]c3ccc(O)cc13)C(=O)NC(C)(C)C(=O)N[C@@H](C(C)C)C(=O)N[C@H](C(=O)NCC(N)=O)CSCC(=O)N[C@@H](Cc1ccc(O)cc1)C(=O)N2C
notes: also called Compound No. 1

T2 sequence (P10912 with tags, fused parts or gaps limits assumed): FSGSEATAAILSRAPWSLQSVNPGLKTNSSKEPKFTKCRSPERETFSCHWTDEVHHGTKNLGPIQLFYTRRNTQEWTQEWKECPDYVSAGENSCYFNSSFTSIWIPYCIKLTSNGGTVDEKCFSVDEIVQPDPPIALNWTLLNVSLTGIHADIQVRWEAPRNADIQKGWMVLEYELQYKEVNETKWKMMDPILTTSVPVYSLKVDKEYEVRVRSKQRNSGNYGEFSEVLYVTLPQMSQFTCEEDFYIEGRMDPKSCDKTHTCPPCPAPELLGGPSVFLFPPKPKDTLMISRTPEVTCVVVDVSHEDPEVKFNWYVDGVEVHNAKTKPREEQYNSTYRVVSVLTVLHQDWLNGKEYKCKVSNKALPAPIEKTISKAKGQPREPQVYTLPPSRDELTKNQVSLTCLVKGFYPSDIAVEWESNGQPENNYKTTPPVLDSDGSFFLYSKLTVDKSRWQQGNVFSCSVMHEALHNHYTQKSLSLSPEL

One assay addresses T2, Recombinant human GhR-Fc protein (Homo sapiens, UniProt P10912).
T2 construct: purchased R&D Systems
Nature of the assay: Binding activity of hGhR binding peptide by surface plasmon resonance (SPR), Biacore T200, single-cycle kinetics. Conditions: human GhR-Fc immobilized on CM5 chip, KD calculated from ka and kd. As to the method:
(§1) SPR assay was performed using Biacore T200 (cytiva: Former GE Healthcare). After the equilibration of Series S Sensor Chip CM5 (produced by cytiva: Former GE Healthcare) with Running Buffer (HBS-EP with 1% (v/v) DMSO), an EDC/NHS mixture was injected at a flow rate of 10 μL/min for 7 minutes to thereby activate the functional groups on sensor chip. Recombinant human GhR-Fc protein (R&D Systems) in 10 mM Acetate (pH4.0) was injected immobilized to at a flow rate of 5 μL/min. It took 7 minutes to immobilize the GhR on the substrate surfaces of the sensor chip. Then Ethanolamine was injected at a flow rate of 10 μL/min for 7 minutes. 1M Ethanolamine (aq.) was injected at a flow rate of 10 μL/min for 420 seconds for capping.
(§2) Using these Peptide Samples, kinetics of peptides against human GhR-Fc protein were measured. The method adopted for sample measurement was a single-cycle kinetics method. The analysis was conducted using the evaluation software provided with Biacore T200. A DMSO correction curve obtained by solvent correction measurements was applied for the analysis. Kinetics fitting was done on the difference data obtained by subtracting the baseline data from sample measurement data. KD values were calculated based on the association rate constant (ka) and dissociation rate constant (kd).
Furthermore, “obs. m/z [M+2H]2+” indicates the ESI-MS(+) observed value. Unless otherwise specified, this is bivalent ([M+2H]^2+).
`CC(C)[C@@H]1NC(=O)[C@H](C(C)C)NC(=O)[C@@H]2CCCCNC(=O)Cn3cc(c4ccccc43)C[C@H](NC(=O)[C@H](CC(N)=O)NC(=O)[C@H](CO)NC1=O)C(=O)N[C@@H](Cc1ccc(C(=O)O)cc1)C(=O)N[C@@H](CCCCN)C(=O)N[C@@H](Cc1c[nH]c3ccc(O)cc13)C(=O)NC(C)(C)C(=O)N[C@@H](C(C)C)C(=O)N[C@H](C(=O)NCC(=O)N1CCC[C@H]1C(=O)N[C@H](CO)C(=O)N[C@H](CO)C(=O)N[C@H](CO)C(=O)NCCCC[C@H](NC(=O)CC[C@H](NC(=O)CC[C@H](NC(=O)CCCc1ccc(I)cc1)C(=O)O)C(=O)O)C(N)=O)CSCC(=O)N[C@@H](Cc1ccc(C(=O)O)cc1)C(=O)N2C` [Compound 14] ({CH2CO}-[Phe(4-COOH)][NMeK]VVSN[Trp(1-CH2CO)][Phe(4-COOH)]K[Trp(5-OH)][Aib]VCGP[dS][dS][dS]-X10; lactam 2-7; thioether N-13): the Kd was 1.88 nM.

As to `COc1ccc2[nH]cc(C[C@@H]3NC(=O)[C@H](CC(N)=O)NC(=O)[C@H](CO)NC(=O)[C@H](C(C)C)NC(=O)[C@H](C(C)C)NC(=O)[C@H](CCCCNC(=O)CC[C@H](NC(=O)CCCc4ccc(I)cc4)C(=O)O)N(C)C(=O)[C@H](Cc4ccc(O)cc4)NC(=O)CSC[C@@H](C(=O)NCC(=O)N4CCC[C@H]4C(=O)N[C@H](CO)C(=O)N[C@H](CO)C(=O)N[C@H](CO)C(N)=O)NC(=O)[C@H](C(C)C)NC(=O)C(C)(C)NC(=O)[C@H](Cc4c[nH]c5ccc(O)cc45)NC(=O)[C@H](CCCCN)NC(=O)[C@H](Cc4ccc(O)cc4)NC3=O)c2c1` [Compound 46] ({CH2CO}-Y[NMeK]([γGlu-Butanoyl(4-(4-I-phenyl))])VVSN[Trp(5-OMe)]YK[Trp(5-OH)][Aib]VCGP[dS][dS][dS]-NH2; thioether N-13), the Kd was 1.07 nM. As to `CC(C)[C@@H]1NC(=O)[C@H](C(C)C)NC(=O)[C@@H]2CCCCNC(=O)Cn3cc(c4ccccc43)C[C@H](NC(=O)[C@H](CC(N)=O)NC(=O)[C@H](CO)NC1=O)C(=O)N[C@@H](Cc1ccc(C(=O)O)cc1)C(=O)N[C@@H](CCCC(N)=O)C(=O)N[C@@H](Cc1c[nH]c3ccc(O)cc13)C(=O)NC(C)(C)C(=O)N[C@@H](C(C)C)C(=O)N[C@H](C(=O)NCCCC[C@H](NC(=O)CC[C@H](NC(=O)CC[C@H](NC(=O)CCCc1ccc(I)cc1)C(=O)O)C(=O)O)C(N)=O)CSCC(=O)N[C@@H](Cc1ccc(C(=O)O)cc1)C(=O)N2C` [Compound 5] ({CH2CO}-[Phe(4-COOH)][NMeK]VVSN[Trp(1-CH2CO)][Phe(4-COOH)][Aad](NH2)[Trp(5-OH)][Aib]VC-X10; lactam 2-7; thioether N-13), the Kd was 3.07 nM. As to `CC(C)[C@@H]1NC(=O)[C@H](C(C)C)NC(=O)[C@@H]2CCCCNC(=O)Cn3cc(c4ccccc43)C[C@H](NC(=O)[C@H](CC(N)=O)NC(=O)[C@H](CO)NC1=O)C(=O)N[C@@H](Cc1ccc(C(=O)O)cc1)C(=O)N[C@@H](CCCCN)C(=O)N[C@@H](Cc1c[nH]c3ccc(O)cc13)C(=O)NC(C)(C)C(=O)N[C@@H](C(C)C)C(=O)N[C@H](C(=O)NCCCC[C@H](NC(=O)COCCOCCNC(=O)COCCOCCNC(=O)CC[C@H](NC(=O)CC[C@H](NC(=O)CCCCCCCCCCCCC(=O)O)C(=O)O)C(=O)O)C(N)=O)CSCC(=O)N[C@@H](Cc1ccc(C(=O)O)cc1)C(=O)N2C` [Compound 62] ({CH2CO}-[Phe(4-COOH)][NMeK]VVSN[Trp(1-CH2CO)][Phe(4-COOH)]K[Trp(5-OH)][Aib]VC-X13; lactam 2-7; thioether N-13), the Kd was 3.88 nM. Turning to `CC(C)[C@@H]1NC(=O)[C@H](C(C)C)NC(=O)[C@@H]2CCCCNC(=O)Cn3cc(c4ccccc43)C[C@H](NC(=O)[C@H](CC(N)=O)NC(=O)[C@H](CO)NC1=O)C(=O)N[C@@H](Cc1ccc(O)cc1)C(=O)N[C@@H](CCCCNC(=O)N1CCN(CC(=O)O)CC1)C(=O)N[C@@H](Cc1c[nH]c3ccc(O)cc13)C(=O)NC(C)(C)C(=O)N[C@@H](C(C)C)C(=O)N[C@H](C(=O)NCC(=O)N1CCC[C@H]1C(=O)N[C@H](CO)C(=O)N[C@H](CO)C(=O)N[C@H](CO)C(=O)NCCCC[C@H](NC(=O)CC[C@H](NC(=O)CC[C@H](NC(=O)CCCCCCCCCCCCCCC(=O)O)C(=O)O)C(=O)O)C(N)=O)CSCC(=O)N[C@@H](Cc1ccc(O)cc1)C(=O)N2C` [Compound 28] ({CH2CO}-Y[NMeK]VVSN[Trp(1-CH2CO)]YK([CO-Piperazinyl(4-CH2COOH)])[Trp(5-OH)][Aib]VCGP[dS][dS][dS]-X3; lactam 2-7; thioether N-13), the Kd was 2.71 nM. As to `CC(C)[C@@H]1NC(=O)[C@H](C(C)C)NC(=O)[C@@H]2CCCCNC(=O)Cn3cc(c4ccccc43)C[C@H](NC(=O)[C@H](CC(N)=O)NC(=O)[C@H](CO)NC1=O)C(=O)N[C@@H](Cc1ccc(C(=O)O)cc1)C(=O)N[C@@H](CCCCN)C(=O)N[C@@H](Cc1c[nH]c3ccc(O)cc13)C(=O)NC(C)(C)C(=O)N[C@@H](C(C)C)C(=O)N[C@H](C(=O)NCCCC[C@H](NC(=O)COCCOCCNC(=O)COCCOCCNC(=O)CC[C@H](NC(=O)CC[C@H](NC(=O)CCCCCCCCCCCCCC(=O)O)C(=O)O)C(=O)O)C(N)=O)CSCC(=O)N[C@@H](Cc1ccc(C(=O)O)cc1)C(=O)N2C` [Compound 63] ({CH2CO}-[Phe(4-COOH)][NMeK]VVSN[Trp(1-CH2CO)][Phe(4-COOH)]K[Trp(5-OH)][Aib]VC-X8; lactam 2-7; thioether N-13), the Kd is 3.7 nM.

In the next assay the target is T1, Recombinant human GhR-Fc protein (R&D …). Nature of the assay: SPR, Biacore T200, single-cycle kinetics, GhR-Fc immobilised on CM5.
Conditions: not given
As to the method:
as §1, with “capping. 10 mM Peptides in DMSO were diluted to obtain 10 uM with Running Buffer, and prepared 100 nM, 50 nM, 25 nM, 10 nM, 5 nM of each peptide solutions (Peptide Samples).” for “capping.”
as §2
(In general: Surface plasmon resonance follows binding to a sensor surface in real time, without labels.)
As for {CH2CO}-[Phe(4-COOH)][NMeK]VVSN[Trp(1-CH2CO)]YK[Trp(5-OH)][A4pipaa]VCK([Glu-Glu-C16 diacid])-NH2 (thioether N-13; lactam 2-7, also called Compound No. 18) [GhR_PD_238], the Kd amounted to 2.4 nM. Regarding B1, the Kd came out at 0.7 nM. On the same count and under the same terms, under {CH2CO}-Y[NMeK]VVSN[Trp(1-CH2CO)]YK[Trp(5-OH)][Aib]VCK([Glu-Glu-Butanoyl(4-(4-I-phenyl))])-NH2 (thioether N-13; lactam 2-7, also called Compound No. 32) [GhR_PD_246] stands 0.98 nM; under {CH2CO}-Y[NMeK]VVSN[Trp(1-CH2CO)]YK[Trp(5-OH)][A4pipaa]VCK([Glu-Glu-C16 diacid])-NH2 (thioether N-13; lactam 2-7, also called Compound No. 29) [GhR_PD_237], 1.57 nM; under {CH2CO}-[Phe(4-COOH)][NMeK]VVSN[Trp(1-CH2CO)]YK[Trp(5-OH)][Aib]VCK([Glu-Glu-Butanoyl(4-(4-I-phenyl))])-NH2 (thioether N-13; lactam 2-7, also called Compound No. 21) [GhR_PD_215], 1.07 nM.

On to {CH2CO}-[Phe(4-COOH)][NMeK]VVSN[Trp(1-CH2CO)]YK[Trp(5-OH)][Aib]VCK([Glu-Glu-C16 diacid])-NH2 (thioether N-13; lactam 2-7, also called Compound No. 19) [GhR_PD_231], for which the Kd was 1.93 nM. For {CH2CO}-Y[NMeK]VVSN[Trp(1-CH2CO)][Phe(4-COOH)]K[Trp(5-OH)][A4pipaa]VCK([Glu-Glu-C16 diacid])-NH2 (thioether N-13; lactam 2-7, also called Compound No. 23) [GhR_PD_239], the Kd is 2.29 nM.

{CH2CO}-Y[NMeK]VVSN[Trp(1-CH2CO)]YK[Trp(5-OH)][Aib]VCG-NH2 (thioether N-13; lactam 2-7 via G, also called Compound No. 2) [GhR_PD_140]: the Kd came out at 1.22 nM.
